Patent publication WO2009150539A2 (dated 2009)
Where “and” joins values, the source holds several entries; their conditions need not be identical. Equal entries are not always repeated.

Assays:
[1] = target: AahI' toxin of Androctonus australis hector (Androctonus australis hector) (UniProt P01479); assay: cell-based or functional assay
[2] = target: T1, AahII toxin of Androctonus australis hector (Androctonus australis hector, UniProt P01484 20-83); assay: cell-based or functional assay
T1 sequence: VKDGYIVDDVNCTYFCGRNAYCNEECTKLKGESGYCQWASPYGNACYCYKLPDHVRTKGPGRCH

[3] = target: T1, AahII toxin of Androctonus australis …; assay: SPR (BIAcore), AahII immobilised on CM5 chip, Nb in mobile phase
[4] = target: T1, AahII toxin of Androctonus australis …; assay: phage ELISA on coated AahII, Nb displayed on phage

AahI' toxin of Androctonus australis hector (Androctonus australis hector), sequence (P01479 20-82): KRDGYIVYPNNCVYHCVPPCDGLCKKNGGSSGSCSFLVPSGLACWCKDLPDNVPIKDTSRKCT

B1: AahI'C13 (VHH)
VHH: QVQLQESGGGSVQPGGSLRLSCAASGYIYSRYCMGWFRQAPGKEREGVAVISGYGTTHFADSAKGRFTISQDKAKNMVYLQMNSLRPEDTAIYYCAVRQWDCYSANWPQTHTYDYWGQGTQVTVSS
surviving mice; i.c.v.; 4 LD50 AahI'; ratio 1:2 (survivors of 4 mice) [1]: 2

B2: NbAahII20 (VHH)
VHH: QVQLQESGGGLVQPGGSLRLSCTASGFDFSRYVMSWVRQAPGKDFEWISGIMPLSSAGTTYADAVKGRFTISRDNAKNTLYLQLNNLKTEDTAIYYCAKGVYTTYIGGARGQGTQVTVSS
notes: Purified from E. coli periplasm with His6; also called NbAahIKO (I); cluster I
NC = (LD50 with Nb - LD50 without Nb)/Nb; i.c.v.; AahII:Nb 1:4 [2]: 27000 LD50/mg and 400 LD50/nmol
Survivors/Injected mice; i.c.v.; AahII:Nb 1:2; 2 LD50/mouse; 24 ng Nb/mouse [2]: 3 survivors of 4 mice
Survivors/Injected mice; i.c.v.; AahII:Nb 1:2; 4 LD50/mouse; 48 ng Nb/mouse [2]: 2 survivors of 4 mice
Survivors/Injected mice; i.c.v.; AahII:Nb 1:4; 3 LD50/mouse; 72 ng Nb/mouse [2]: 2 survivors of 4 mice
Kd [3]: 0.26 nM
koff [3]: 0.00213 s⁻¹
kon [3]: 8.18e+06 M⁻¹ s⁻¹

B3: NbAahII17 (VHH)
VHH: DVQLVESGGGSVQAGGSLRLSCAASGVTLNNYCVGWFRQAPGKEREGVAAFKSGGSFTYYADSVKGRFTISKDNAKNTMYLQMNSLNSDDTAMYYCAVTRNSCLGLAKFRPSSYNYWGQGTQVTVSS
notes: also called cluster D
Survivors/Injected mice; i.c.v.; AahII:Nb 1:2; 2 LD50/mouse; 24 ng Nb/mouse [2]: 0 survivors of 4 mice
Kd [3]: 0.61 nM
koff [3]: 0.00376 s⁻¹
kon [3]: 6.12e+06 M⁻¹ s⁻¹

B4: NbAahII11 (VHH)
VHH: QVQLQESGGGSVQAGGSLRLSCAASGLTLNNYCIGWFRQAPGKEREGVAALKSGGSFTYYADSVKGRFTISRDNAKNTMYLQMSSLNSEDTAMYYCAVTRNSCLGLAKFRPSSYNYWGQGTQVTVSS
notes: also called NbAaWI 1 1; NbAahIIl l
binding result [4]: binds

B5: NbAahII32 (VHH)
VHH: QVQLQESGGGSVQAGGSLRLSCAASGLTLNNYCIGWFRQAPGKEREGVAALKSGGSFTYYADSVKGRFTISRDNAKNTMYLQMSSLNSEDTAMYYCAVTRNSCLGLAKFRPSSYNYWGQGTQVTVSS
binding result [4]: binds

B6: NbAahII6 (VHH)
VHH: QVQLQESGGGSVQAGGSLRLSCAASGATLNNYCLGWFRQAPGKEREGVAAFKSGGSFTYYADSVKGRFTISKDNAKNTMYLQMNSLNSEDTAMYYCAVTRHSCLGLAKFRPSSYNYWGQGTQVTVSS
notes: also called NbAahllό
binding result [4]: binds

B7: NbAahII18 (VHH)
VHH: QVQLQESGGGSVQAGGSLRLSCAASGDSYSNYYMAWFRQAPGKEREGVAHINRSGRITLYADSVKGRFTMSRDNAKNTVYLQMNSLRPEDTAIYYCAAGVRTHMPPLASYGFDYWGQGTQVTVSS
notes: also called NbAahlllδ; NbAahll l δ
NC = (LD50 with Nb - LD50 without Nb)/Nb; i.c.v.; AahII:Nb 1:4 [2]: 27000 LD50/mg and 400 LD50/nmol
Survivors/Injected mice; i.c.v.; AahII:Nb 1:2; 3 LD50/mouse; 36 ng Nb/mouse [2]: 1 survivors of 4 mice
Survivors/Injected mice; i.c.v.; AahII:Nb 1:2; 4 LD50/mouse; 48 ng Nb/mouse [2]: 0 survivors of 4 mice
Survivors/Injected mice; i.c.v.; AahII:Nb 1:4; 2 LD50/mouse; 48 ng Nb/mouse [2]: 2 survivors of 4 mice
Survivors/Injected mice; i.c.v.; AahII:Nb 1:4; 3 LD50/mouse; 72 ng Nb/mouse [2]: 2 survivors of 4 mice
Kd [3]: 0.18 nM
koff [3]: 0.0016 s⁻¹
kon [3]: 8.95e+06 M⁻¹ s⁻¹

B8: AahI'F12 (VHH)
VHH: QVQLQESGGGSVQAGGSLRLSCVGPGISYVYNRVGWFRQAPGKESEVVAAFYTSNTSALYYAAQVKGRFTISQGNAKNTVYLQMNNLKPEDSGKYYCATANGGLLSDARGYRHYGQGTQVTVSS
surviving mice; i.c.v.; 4 LD50 AahI'; ratio 1:2 (survivors of 4 mice) [1]: 4
surviving mice; i.c.v.; 20 LD50 AahI'; ratio 1:2 (survivors of 4 mice) [1]: 4
surviving mice; i.c.v.; 23 LD50 AahI'; ratio 1:2 (survivors of 4 mice) [1]: 4
surviving mice; i.c.v.; 26 LD50 AahI'; ratio 1:2 (survivors of 4 mice) [1]: 4
surviving mice; i.c.v.; 29 LD50 AahI'; ratio 1:2 (survivors of 4 mice) [1]: 4
surviving mice; i.c.v.; 33 LD50 AahI'; ratio 1:2 (survivors of 4 mice) [1]: 4
surviving mice; i.c.v.; 37 LD50 AahI'; ratio 1:2 (survivors of 4 mice) [1]: 4
surviving mice; i.c.v.; 47 LD50 AahI'; ratio 1:2 (survivors of 4 mice) [1]: 4
surviving mice; i.c.v.; 60 LD50 AahI'; ratio 1:2 (survivors of 4 mice) [1]: 4
surviving mice; i.c.v.; 70 LD50 AahI'; ratio 1:2 (survivors of 4 mice) [1]: 4
surviving mice; i.c.v.; 75 LD50 AahI'; ratio 1:2 (survivors of 4 mice) [1]: 4
surviving mice; i.c.v.; 80 LD50 AahI'; ratio 1:2 (survivors of 4 mice) [1]: 4
surviving mice; i.c.v.; 90 LD50 AahI'; ratio 1:2 (survivors of 4 mice) [1]: 4
surviving mice; i.c.v.; 95 LD50 AahI'; ratio 1:1 (survivors of 4 mice) [1]: 2
surviving mice; i.c.v.; 95 LD50 AahI'; ratio 1:2 (survivors of 4 mice) [1]: 4
surviving mice; i.c.v.; 100 LD50 AahI'; ratio 1:1 (survivors of 4 mice) [1]: 2
surviving mice; i.c.v.; 100 LD50 AahI'; ratio 1:2 (survivors of 4 mice) [1]: 4

B9: NbAahII38 (VHH)
VHH: DVQLVESGGGLVQPGGSLRLSCAASGFTFSNYVMSWVRQAPGKGLEWVSGINHGGGIQDYADSVKGRFTISRDNAKNTLYLQLNSLKIEDTAMYYCVRASHYRDYGPTIYSWGQGTQVTVSS
notes: also called cluster H
Survivors/Injected mice; i.c.v.; AahII:Nb 1:2; 2 LD50/mouse; 24 ng Nb/mouse [2]: 1 survivors of 4 mice
Survivors/Injected mice; i.c.v.; AahII:Nb 1:2; 3 LD50/mouse; 36 ng Nb/mouse [2]: 0 survivors of 4 mice
Kd [3]: 76 nM
koff [3]: 0.000781 s⁻¹
kon [3]: 10200 M⁻¹ s⁻¹

B10: NbAahII10 (VHH)
VHH: QVQLVESGGGSVQAGGSLKLSCAASGYFYSSNYCLGWFRQAPGKEREGVAQINIAPGRIYYADSVKGRFTISRDNAKNTVYLQMDSLKPEDTAIYYCASTAGNMYYGLRGPADFDYWGQGTQVTVSS
notes: also called NbAahIIlO; NbAahII lO
NC = (LD50 with Nb - LD50 without Nb)/Nb; i.c.v.; AahII:Nb 1:4 [2]: 37000 LD50/mg and 555 LD50/nmol
Survivors/Injected mice; i.c.v.; AahII:Nb 1:4; 2 LD50/mouse; 48 ng Nb/mouse [2]: 4 survivors of 4 mice
Survivors/Injected mice; i.c.v.; AahII:Nb 1:4; 3 LD50/mouse; 72 ng Nb/mouse [2]: 4 survivors of 4 mice
neutralizing capacity, i.c.v., toxin/Nb ratio 1/4 [2]: ~37500 LD50/mg
Kd [3]: 0.49 nM
koff [3]: 0.000569 s⁻¹
kon [3]: 1.14e+06 M⁻¹ s⁻¹

B11: NbAahII12 (VHH)
VHH: QVQLVESGGGLVQPGGSLRLSCAASGFSFNIYAMSWVRQAPGKQFEWVSGIHPNGRSTYYTDSVKGRFTISRDNAKNTLYLQLDSLKTEDTAMYYCAKGVLTKYVGGARGQGTQVTVSS
notes: Purified from E. coli periplasm with His6; also called cluster I
NC = (LD50 with Nb - LD50 without Nb)/Nb; i.c.v.; AahII:Nb 1:4 [2]: 27000 LD50/mg and 400 LD50/nmol
Survivors/Injected mice; i.c.v.; AahII:Nb 1:4; 2 LD50/mouse; 48 ng Nb/mouse [2]: 3 survivors of 4 mice
Survivors/Injected mice; i.c.v.; AahII:Nb 1:4; 3 LD50/mouse; 72 ng Nb/mouse [2]: 2 survivors of 4 mice
Kd [3]: 0.28 nM
koff [3]: 0.0016 s⁻¹
kon [3]: 5.63e+06 M⁻¹ s⁻¹

B12: NbAahII19 (VHH)
VHH: QVQLQESGGGLVQPGGSLRLSCAASGFSFNIYAMSWVRQAPGKQFEWVSGIHPDGRSTYYTDSVKGRFTISRDNAKNTLYLQLDSLKTEDTAMYYCAKGVLTKYVGSARGQGTQVTVSS
notes: as for B11
Survivors/Injected mice; i.c.v.; AahII:Nb 1:4; 2 LD50/mouse; 48 ng Nb/mouse [2]: 4 survivors of 4 mice
Survivors/Injected mice; i.c.v.; AahII:Nb 1:4; 3 LD50/mouse; 72 ng Nb/mouse [2]: 4 survivors of 4 mice
Kd [3]: 2.39 nM
koff [3]: 0.013 s⁻¹
kon [3]: 5.46e+06 M⁻¹ s⁻¹

B13: AahI'A19 (VHH)
VHH: QVQLQESGGGSVQAGGSLRLSCVASEYSECIGWFRQAPGKEREGVAAIEKVLGQRWRADSIHDRITISQDKAKNTVYLQMTSLKIDDTAMYYCAAKGRGCMSQPTTGYLSWGQGTQVTVSS
surviving mice; i.c.v.; 4 LD50 AahI'; ratio 1:2 (survivors of 4 mice) [1]: 4

B14: NbAahII3 (VHH)
VHH: QVQLVESGGGSVQAGGSLRLACAASGVTLSDYCMGWFRQAPGKEREGVAAIKDRGSISYYADSVKGRFTISKDNAKNTMYLQMNRLNSEDTAMYYCAVTRNSCLGLAKFRPPSYNYWGQGTQVTVSS
notes: also called NbAahID; NbAahIB
binding result [4]: binds

B15: AahI'D10 (VHH)
VHH: QVQLQESGGGSVQAGGSLRLSCAASVDTFSTTCMGWFRQTPGKEREGVAVIKTFYAGTVYADSVKGRFTISQDIAKNTVYLQMNSLNPEDTAMYYCAATGGPYNGRCPLASQPFRYWTQGTQVTVSS
surviving mice; i.c.v.; 4 LD50 AahI'; ratio 1:2 (survivors of 4 mice) [1]: 3

B16: AahI'D11 (VHH)
VHH: QVQLQESGGGSVEAGGSLRLSCATSGFTFSRYAMYWFRQAPGMECEWVSTIHTNGDTYYANSLKGRFTGSRDNAKNTAYLQMNSLKPEDTAVYYCHAPLNDGSTPTHICSRAGSYGYWGQGTQVTVSS
surviving mice; i.c.v.; 4 LD50 AahI'; ratio 1:2 (survivors of 4 mice) [1]: 2

B17: NbAahII05 (VHH)
VHH: QVQLQESGGGSVQAGGSLRLSCAASGYTCTKFNMGWYRQAPGKQREFVASIRRDSTIYYGDSVKGRFTISQDNAKNMVYLQMTSLKPEDSAMYYCSTRCLTSSVPYWGQGTQVTVSS
notes: also called cluster G
Survivors/Injected mice; i.c.v.; AahII:Nb 1:2; 2 LD50/mouse; 24 ng Nb/mouse [2]: 4 survivors of 4 mice
Survivors/Injected mice; i.c.v.; AahII:Nb 1:2; 3 LD50/mouse; 36 ng Nb/mouse [2]: 4 survivors of 4 mice
Survivors/Injected mice; i.c.v.; AahII:Nb 1:2; 4 LD50/mouse; 48 ng Nb/mouse [2]: 1 survivors of 4 mice
Survivors/Injected mice; i.c.v.; AahII:Nb 1:4; 3 LD50/mouse; 72 ng Nb/mouse [2]: 4 survivors of 4 mice
Kd [3]: 0.67 nM
koff [3]: 0.00186 s⁻¹
kon [3]: 2.77e+06 M⁻¹ s⁻¹

B18: NbAahII36 (VHH)
VHH: QVQLVESGGGSVQAGGSLRLSCAASGYTFSNYRMGWFRQAPGKECELVSTILTDGSTNYADSVKGRFTISRDNAKNTVYLLMNNLKAEDTAVYYCAAGNSRKGYLRRCGGTDFGYWGQGTQVTVSS
notes: also called cluster C
Survivors/Injected mice; i.c.v.; AahII:Nb 1:2; 2 LD50/mouse; 24 ng Nb/mouse [2]: 1 survivors of 4 mice
Survivors/Injected mice; i.c.v.; AahII:Nb 1:2; 3 LD50/mouse; 36 ng Nb/mouse [2]: 0 survivors of 4 mice
Kd [3]: 0.67 nM
koff [3]: 0.00137 s⁻¹
kon [3]: 2.04e+06 M⁻¹ s⁻¹

B19: NbAahII16 (VHH)
VHH: HVQLVESGGGSVQAGGSLRLSCAASGYTFSNYRMGWFRRAPGKECELVSTILTDGSTNYADSVKGRFTISRDNAKNTVYLLMNNLKAEDTAVYYCAAGNSRKGYLRRCGGTDFGYWGQGTQVTVSS
notes: also called NbAahlllό
binding result [4]: binds
